{"source": "paper doi:10.1101/2021.06.09.447781", "about": "(bioRxiv, 2021)", "proteins": {"B1": {"name": "B. subtilis ClpCDWB (E280A/E618A), catalytically inactive mutant (enzyme, UniProt P37571 1-810, looked up)", "chain": "MMFGRFTERAQKVLALAQEEALRLGHNNIGTEHILLGLVREGEGIAAKALQALGLGSEKIQKEVESLIGRGQEMSQTIHYTPRAKKVIELSMDEARKLGHSYVGTEHILLGLIREGEGVAARVLNNLGVSLNKARQQVLQLLGSNETGSSAAGTNSNANTPTLDSLARDLTAIAKEDSLDPVIGRSKEIQRVIEVLSRRTKNNPVLIGEPGVGKTAIAEGLAQQIINNEVPEILRDKRVMTLDMGTVVAGTKYRGEFEDRLKKVMDEIRQAGNIILFIDALHTLIGAGGAEGAIDASNILKPSLARGELQCIGATTLDEYRKYIEKDAALERRFQPIQVDQPSVDESIQILQGLRDRYEAHHRVSITDDAIEAAVKLSDRYISDRFLPDKAIDLIDEAGSKVRLRSFTTPPNLKELEQKLDEVRKEKDAAVQSQEFEKAASLRDTEQRLREQVEDTKKSWKEKQGQENSEVTVDDIAMVVSSWTGVPVSKIAQTETDKLLNMENILHSRVIGQDEAVVAVAKAVRRARAGLKDPKRPIGSFIFLGPTGVGKTELARALAESIFGDEESMIRIDMSEYMEKHSTSRLVGSPPGYVGYDEGGQLTEKVRRKPYSVVLLDAIEKAHPDVFNILLQVLEDGRLTDSKGRTVDFRNTILIMTSNVGASELKRNKYVGFNVQDETQNHKDMKDKVMGELKRAFRPEFINRIDEIIVFHSLEKKHLTEIVSLMSDQLTKRLKEQDLSIELTDAAKAKVAEEGVDLEYGARPLRRAIQKHVEDRLSEELLRGNIHKGQHIVLDVEDGEFVVKTTAKTN"}}, "key": {"negative-stain EM": {"molecular_target": "the molecule itself", "experiment": "negative-stain EM"}, "cryo-EM structure [1]": {"molecular_target": "the molecule itself", "experiment": "cryo-EM structure"}, "cryo-EM structure [2]": {"molecular_target": "the molecule itself", "experiment": "cryo-EM structure", "remark": "listed apart in the source"}}}
{"protein": "B1", "values": [{"measurement": "stoichiometry N", "setting": "negative-stain EM", "value": 10}, {"measurement": "stoichiometry N", "setting": "cryo-EM structure [1]", "value": 24}, {"measurement": "stoichiometry N", "setting": "cryo-EM structure [2]", "value": 6}]}
